Holding throughout (test): native gel or EMSA
For orientation: Mobility shift assays separate free from complexed probe on a gel.

Experiment [1] deals with GluA1 AMPA receptor subunit, wild type (rat, flip) (rat).
The target in experiment [2] is GluA1 lacking the extracellular domains (GluA1-ΔECD) (rat).
The target in another experiment is GluA1(G816A) (rat).
Experiment [3] has as its target GluA1(G816A)-TARP γ-2 tandem (rat).
Experiment [4] addresses GluA1-TARP γ-2 tandem (rat).
The target of experiment [5] is GluA2(R), edited form of the GluA2 AMPA receptor subunit (rat, flip) (rat).

Chain of GluA2(R), edited form of the GluA2 AMPA receptor subunit (rat, flip) (P19491 22-883): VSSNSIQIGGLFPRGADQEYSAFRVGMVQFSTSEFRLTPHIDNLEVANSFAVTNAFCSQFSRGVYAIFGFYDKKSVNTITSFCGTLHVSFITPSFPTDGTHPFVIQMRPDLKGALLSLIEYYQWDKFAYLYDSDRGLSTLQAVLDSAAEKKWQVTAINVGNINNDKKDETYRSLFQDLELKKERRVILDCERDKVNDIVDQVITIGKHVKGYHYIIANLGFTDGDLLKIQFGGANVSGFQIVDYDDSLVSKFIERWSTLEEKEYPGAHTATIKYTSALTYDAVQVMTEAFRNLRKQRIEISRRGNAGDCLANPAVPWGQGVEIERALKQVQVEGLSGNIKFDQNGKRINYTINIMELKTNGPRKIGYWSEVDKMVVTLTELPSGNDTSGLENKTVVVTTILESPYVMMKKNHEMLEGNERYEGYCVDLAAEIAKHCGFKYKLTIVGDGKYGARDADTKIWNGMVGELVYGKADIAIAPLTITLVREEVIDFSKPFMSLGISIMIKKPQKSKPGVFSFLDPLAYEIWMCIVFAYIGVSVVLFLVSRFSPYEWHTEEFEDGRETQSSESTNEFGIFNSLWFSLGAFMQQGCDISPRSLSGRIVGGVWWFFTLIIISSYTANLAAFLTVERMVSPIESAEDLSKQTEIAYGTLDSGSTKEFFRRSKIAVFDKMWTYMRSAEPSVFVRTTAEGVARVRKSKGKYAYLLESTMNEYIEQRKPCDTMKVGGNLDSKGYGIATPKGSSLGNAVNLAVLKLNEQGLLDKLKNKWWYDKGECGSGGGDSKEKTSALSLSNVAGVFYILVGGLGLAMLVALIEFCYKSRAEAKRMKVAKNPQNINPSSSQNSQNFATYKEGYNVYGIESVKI

As usually defined, the stoichiometry N is a count of units in the complex or per binding partner. The substance “GluA1 AMPA receptor subunit, wild type (rat, flip)” came in with a stoichiometry N in experiment [1] of 4.

The substance “GluA1 lacking the extracellular domains (GluA1-ΔECD) (domain or fragment)” displayed a stoichiometry N in experiment [2] of 4.

Substance GluA1(G816A) (receptor) gave a tetramer formation with GluA1(G816A) (rat) of 50%.

Regarding GluA1(G816A)-TARP γ-2 tandem, the stoichiometry N in experiment [3] was found to be 4.

GluA1-TARP γ-2 tandem: the stoichiometry N in experiment [4] came out at 4.

On to “GluA2(R), edited form of the GluA2 AMPA receptor subunit (rat, flip)”, for which the stoichiometry N in experiment [5] came to 4.
